According to US20220204643A1 (published 2022):

Experiments:
cancer/testis antigen 1A = target: T1, cancer/testis antigen 1A (human, UniProt P78358 1-180)
T1 construct: also called CTAG1A

[1] = target: BAF chromatin remodeling complex subunit BCL7C, transcript variant 2 (human, UniProt Q8WUZ0 1-217)
phosducin like = target: T2, phosducin like (human, UniProt Q13371 2-301)
T2 construct: also called PDCL
T2 sequence: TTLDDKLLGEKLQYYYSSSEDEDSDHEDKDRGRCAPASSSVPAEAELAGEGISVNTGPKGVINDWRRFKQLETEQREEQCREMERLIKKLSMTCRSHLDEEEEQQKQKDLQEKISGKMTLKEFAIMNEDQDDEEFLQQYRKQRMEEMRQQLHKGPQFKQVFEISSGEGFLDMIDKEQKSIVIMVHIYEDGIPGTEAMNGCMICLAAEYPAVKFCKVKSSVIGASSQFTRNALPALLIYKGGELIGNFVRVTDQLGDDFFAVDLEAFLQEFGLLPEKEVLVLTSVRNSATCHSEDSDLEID

[2] = target: T3, aarF domain containing kinase 5 (human, UniProt Q3MIX3 1-580)
T3 construct: also called ADCK5

Dexd-box helicase 52 = target: T4, Dexd-box helicase 52 (human, UniProt Q9Y2R4 1-599)
T4 construct: also called DDX52
T4 sequence: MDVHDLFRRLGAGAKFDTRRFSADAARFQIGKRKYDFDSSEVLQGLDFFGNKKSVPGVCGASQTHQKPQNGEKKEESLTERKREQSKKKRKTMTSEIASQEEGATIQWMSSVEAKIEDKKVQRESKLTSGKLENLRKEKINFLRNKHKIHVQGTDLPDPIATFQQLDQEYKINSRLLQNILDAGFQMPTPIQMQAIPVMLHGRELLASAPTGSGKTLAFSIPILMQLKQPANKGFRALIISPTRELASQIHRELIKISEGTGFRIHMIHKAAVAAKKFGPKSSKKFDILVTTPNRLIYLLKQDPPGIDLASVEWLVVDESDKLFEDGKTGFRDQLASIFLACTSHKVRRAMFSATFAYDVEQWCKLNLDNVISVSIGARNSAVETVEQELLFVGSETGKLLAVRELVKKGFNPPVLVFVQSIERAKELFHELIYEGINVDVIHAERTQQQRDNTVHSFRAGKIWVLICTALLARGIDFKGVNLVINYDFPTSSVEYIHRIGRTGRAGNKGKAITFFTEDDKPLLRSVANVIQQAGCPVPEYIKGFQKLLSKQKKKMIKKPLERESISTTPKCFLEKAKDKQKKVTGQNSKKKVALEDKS

[3] = target: T5, G protein-coupled receptor 4 (human, UniProt P46093 1-362)
T5 construct: also called GPR4

[4] = target: T6, PNMA family member 5, transcript variant 2 (human, UniProt Q96PV4 1-448); experiment: protein array
T6 construct: on protein array; also called PNMA5

[5] = target: T7, phospholipase C delta 1, transcript variant 2 (human, UniProt P51178 1-756); experiment: protein array
T7 construct: on protein array; also called PLCD1
T7 sequence: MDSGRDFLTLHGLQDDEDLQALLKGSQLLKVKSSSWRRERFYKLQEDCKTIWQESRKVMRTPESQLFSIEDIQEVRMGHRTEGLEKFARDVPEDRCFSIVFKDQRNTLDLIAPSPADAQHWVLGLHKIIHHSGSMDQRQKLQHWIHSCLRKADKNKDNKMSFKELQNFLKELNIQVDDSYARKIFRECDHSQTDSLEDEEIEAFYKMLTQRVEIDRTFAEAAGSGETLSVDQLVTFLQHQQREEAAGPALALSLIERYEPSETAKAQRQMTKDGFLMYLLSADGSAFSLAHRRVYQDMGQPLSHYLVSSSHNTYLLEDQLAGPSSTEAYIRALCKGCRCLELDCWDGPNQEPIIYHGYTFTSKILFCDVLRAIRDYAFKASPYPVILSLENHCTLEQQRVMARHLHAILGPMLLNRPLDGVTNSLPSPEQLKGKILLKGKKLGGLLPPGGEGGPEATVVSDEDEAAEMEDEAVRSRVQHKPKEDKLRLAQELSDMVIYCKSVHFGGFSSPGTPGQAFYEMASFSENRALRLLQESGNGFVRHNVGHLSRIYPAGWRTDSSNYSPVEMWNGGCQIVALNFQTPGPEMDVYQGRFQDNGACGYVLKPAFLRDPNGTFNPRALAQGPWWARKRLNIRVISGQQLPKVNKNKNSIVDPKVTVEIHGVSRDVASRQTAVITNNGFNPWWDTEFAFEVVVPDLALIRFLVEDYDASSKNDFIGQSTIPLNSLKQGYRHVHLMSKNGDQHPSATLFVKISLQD

[6] = target: T8, zinc finger protein 326, transcript variant 1 (human, UniProt Q5BKZ1 1-582); experiment: protein array
T8 construct: on protein array; also called ZNF326
T8 sequence: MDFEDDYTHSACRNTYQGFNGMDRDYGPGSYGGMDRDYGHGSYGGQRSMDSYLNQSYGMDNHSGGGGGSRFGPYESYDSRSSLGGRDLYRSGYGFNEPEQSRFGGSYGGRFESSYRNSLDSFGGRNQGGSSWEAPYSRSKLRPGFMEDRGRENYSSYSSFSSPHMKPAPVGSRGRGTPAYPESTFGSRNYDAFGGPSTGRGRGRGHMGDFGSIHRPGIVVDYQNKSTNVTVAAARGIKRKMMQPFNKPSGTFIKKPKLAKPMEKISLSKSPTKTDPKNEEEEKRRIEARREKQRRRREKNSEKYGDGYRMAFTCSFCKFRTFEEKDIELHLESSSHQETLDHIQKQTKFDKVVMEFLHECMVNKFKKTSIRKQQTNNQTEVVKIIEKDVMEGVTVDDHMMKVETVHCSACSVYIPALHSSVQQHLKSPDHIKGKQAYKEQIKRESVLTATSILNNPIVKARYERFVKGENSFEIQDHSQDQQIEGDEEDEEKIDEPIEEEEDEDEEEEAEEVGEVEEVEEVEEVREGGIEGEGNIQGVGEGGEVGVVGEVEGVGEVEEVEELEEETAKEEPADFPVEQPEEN

[7] = target: T9, proliferating cell nuclear antigen, transcript variant 1 (human, UniProt P12004 1-261)
T9 construct: also called PCNA

[8] = target: T10, acyl-CoA binding domain containing 6 (human, UniProt Q9BR61 1-282)
T10 construct: also called ACBD6
T10 sequence: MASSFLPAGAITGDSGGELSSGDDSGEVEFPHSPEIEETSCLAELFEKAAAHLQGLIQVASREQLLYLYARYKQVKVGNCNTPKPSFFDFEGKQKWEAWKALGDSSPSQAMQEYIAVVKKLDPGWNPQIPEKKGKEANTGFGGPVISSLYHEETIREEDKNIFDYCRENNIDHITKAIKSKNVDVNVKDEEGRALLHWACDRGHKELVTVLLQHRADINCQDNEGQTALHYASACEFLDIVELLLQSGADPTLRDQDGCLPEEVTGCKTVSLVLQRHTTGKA

G antigen 2A = target: T11, G antigen 2A (human, UniProt Q6NT46 1-116)
T11 construct: also called GAGE2A
T11 sequence: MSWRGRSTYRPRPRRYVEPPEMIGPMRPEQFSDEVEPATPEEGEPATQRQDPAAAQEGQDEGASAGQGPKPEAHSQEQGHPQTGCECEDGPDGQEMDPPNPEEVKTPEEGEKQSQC

T5 sequence (P46093 whole entry): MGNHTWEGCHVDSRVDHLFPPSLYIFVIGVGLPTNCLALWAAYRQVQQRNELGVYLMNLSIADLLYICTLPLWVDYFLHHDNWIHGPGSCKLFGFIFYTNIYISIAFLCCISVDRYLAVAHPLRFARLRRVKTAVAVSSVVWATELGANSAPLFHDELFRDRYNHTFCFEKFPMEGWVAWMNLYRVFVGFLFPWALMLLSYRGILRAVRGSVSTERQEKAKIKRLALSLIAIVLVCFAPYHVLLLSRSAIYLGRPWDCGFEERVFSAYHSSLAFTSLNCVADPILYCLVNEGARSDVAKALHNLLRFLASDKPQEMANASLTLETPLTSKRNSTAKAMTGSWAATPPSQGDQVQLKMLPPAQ
T6 sequence (Q96PV4 other isoform, or with tags, fused parts or gaps mutant limits assumed): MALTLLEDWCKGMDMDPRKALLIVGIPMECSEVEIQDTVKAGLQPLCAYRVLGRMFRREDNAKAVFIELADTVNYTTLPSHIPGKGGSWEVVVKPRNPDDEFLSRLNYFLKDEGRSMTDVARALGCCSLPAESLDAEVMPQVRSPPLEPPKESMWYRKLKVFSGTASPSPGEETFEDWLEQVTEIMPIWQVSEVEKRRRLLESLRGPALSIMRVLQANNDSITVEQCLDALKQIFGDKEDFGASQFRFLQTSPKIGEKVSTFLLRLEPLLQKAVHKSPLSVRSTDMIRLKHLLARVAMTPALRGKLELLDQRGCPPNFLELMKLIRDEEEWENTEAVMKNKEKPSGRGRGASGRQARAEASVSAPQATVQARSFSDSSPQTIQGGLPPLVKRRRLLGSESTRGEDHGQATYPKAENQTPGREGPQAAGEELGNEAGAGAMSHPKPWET
T9 sequence (P12004 whole entry, change not shown): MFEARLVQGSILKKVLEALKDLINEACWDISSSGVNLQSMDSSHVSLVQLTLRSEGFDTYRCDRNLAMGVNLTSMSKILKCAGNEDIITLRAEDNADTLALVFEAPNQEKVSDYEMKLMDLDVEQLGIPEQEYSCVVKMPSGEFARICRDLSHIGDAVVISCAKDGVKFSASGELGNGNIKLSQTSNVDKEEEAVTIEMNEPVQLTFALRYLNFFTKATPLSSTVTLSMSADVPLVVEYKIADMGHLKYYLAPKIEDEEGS
T3 sequence (Q3MIX3 other isoform, or with tags, fused parts or gaps limits assumed): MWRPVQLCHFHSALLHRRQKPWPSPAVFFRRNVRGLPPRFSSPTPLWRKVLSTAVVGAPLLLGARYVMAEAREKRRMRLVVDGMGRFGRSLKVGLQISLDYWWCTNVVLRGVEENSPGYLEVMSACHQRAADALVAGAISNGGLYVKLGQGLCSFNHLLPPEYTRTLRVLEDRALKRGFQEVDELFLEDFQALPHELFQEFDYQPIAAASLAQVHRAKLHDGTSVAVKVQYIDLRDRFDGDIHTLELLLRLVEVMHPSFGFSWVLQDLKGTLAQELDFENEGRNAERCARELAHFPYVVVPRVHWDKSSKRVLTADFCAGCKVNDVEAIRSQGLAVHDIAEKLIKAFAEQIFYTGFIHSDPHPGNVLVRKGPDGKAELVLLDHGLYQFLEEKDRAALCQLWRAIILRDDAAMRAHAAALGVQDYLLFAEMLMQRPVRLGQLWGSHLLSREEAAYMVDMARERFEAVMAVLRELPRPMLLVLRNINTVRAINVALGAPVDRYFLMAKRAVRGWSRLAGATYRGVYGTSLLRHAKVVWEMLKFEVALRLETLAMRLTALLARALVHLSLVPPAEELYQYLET
T1 sequence (P78358 whole entry): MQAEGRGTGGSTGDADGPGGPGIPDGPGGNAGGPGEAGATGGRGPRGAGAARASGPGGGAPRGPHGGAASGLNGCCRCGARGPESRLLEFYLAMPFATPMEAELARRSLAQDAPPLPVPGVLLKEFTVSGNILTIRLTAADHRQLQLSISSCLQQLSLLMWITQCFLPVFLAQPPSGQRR

B1: TTHY1004 (antibody, V domains shown)
VH: PVQLQESGPGLVKPSQTLSLTCTVSGGSISSGTYYWSWIRQPAGKGLEWIGRIYASGSTNYNPSLKSRVTISVDTSKNQFSLKLTSVTAADTAVYYCARYSGSYPLGFDYWGQGTLVTVSS
VL: DIQMTQSPSSLSASVGDRVTITCRASQSISTYLNWYQQKPGMAPKLLIYAASTLQSGVPSRFSGSGSATDYTLTISSLQPEDFATYYCQQSYNTPLTFGGGTKVDIKR
B1: binds (cancer/testis antigen 1A).

B2: TTHY1003 (antibody, V domains shown)
VH: QVQLVQSGAEMKKPGTSVKVSCRTSGYIFTGSFMHWVRQAPAQGLEWMGWINPKTGATYYTEKFKGRVTLTRDTSINTAYMEMTSLRSDDTAVYYCARGFCDLPACYPVPQYNWFDPWGQGTLVTVSS
VL: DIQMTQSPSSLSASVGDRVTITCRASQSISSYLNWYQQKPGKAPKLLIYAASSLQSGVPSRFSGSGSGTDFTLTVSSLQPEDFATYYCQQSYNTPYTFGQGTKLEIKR
B2: binds [1].

B3: TTES1007 (antibody, V domains shown)
VH: QITLKESGPTLVKPTQTLTLTCTFSGFSLTTTGVGVGWIRQPPGKALEWLALIYWDDDKRYSPSLKSRLIITKDTSKNQVVLTMTNMDPVDTATYYCAHRFGRGVSYYYYGMDVWGQGTTVTVSS
VL: not shown
B3: binds (phosducin like).

B4: TTES1009 (antibody, V domains shown)
VH: EVQLVESGGGLVQPGGSLRLSCAASGFTFSSYEMNWVRQAPGKGLEWVSYISSSGSTIYYADSVKGRFTISRDNAKNSLYLQMNSLRAEDTAVYYCARRGFYYYYGMDVWGQGTTVTVSS
VL: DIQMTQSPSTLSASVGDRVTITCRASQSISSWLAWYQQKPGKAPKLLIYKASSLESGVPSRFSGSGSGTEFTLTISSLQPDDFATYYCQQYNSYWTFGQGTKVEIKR
B4: binds [2].

B5: TTES1008 (antibody, V domains shown)
VH: QVQLVESGGGVVQPGRSLRLSCAASGFIFSSYGMHWVRQAPGKGLEWVAVISYDGSNKYYADSVKGRFTISRDKSKNTLHLQMNSLRAEDTAVYYCAKDSGSNDDMDVWGKGTTVTVSS
VL: QSVLTQPPSVSAAPGQKVTISCSGSSSNIGNNYVSWYQQLPGTAPKLLIYDNNKRPSGIPDRFSGSKSGTSATLGITGLQTGDEADYYCGTWDSSLSAGVFGTGTKVTVLG
B5: binds (Dexd-box helicase 52); binds [3].

B6: TBRE1039 (antibody, V domains shown)
VH: PVQLVQSGAEVKKPGSSVKVSCKASGGTFSSYAISWVRQAPGQGLEWMGGIIPIFGTANYAQKFQGRVTITADESTSTAYMELSSLRSEDTAVYYCARENWNSAGTTEWFDPWGQGTLVTVSS
VL: PYVLTQPPSVSVAPGKTARITCGGNNIGSKSVHWYQQKPGQAPVLVIYYDSDRPSGIPERFSGSNSGNTATLTISRVEAGDEADYYCQVWDSSSDHYVVFGGGTKLTVLG
notes: VH/VL only
B6: binds [4]; binds [5]; binds [6].

B7: TTHY1002 (antibody, V domains shown)
VH: EVQVVESGGGLGQPGGSLRLSCAASGFTFSSYSMNWVRQAPGKGLEWVSYISSSSSTKYYADSVKGRFTISRDNAKKSLYLQMNSLRDEDTAVYYCASPVRPWGQGTLVTVSS
VL: EIVMTQSPATLSVSPGERATLSCRASQSVSSNLAWYQQKPGQAPRLLIYGASTRATGIPARFSGSGSGTEFTLTISSLQSEDFAIYYCQQYNSWPAFGGGTKVEIK
B7: binds [7].

B8: TTES1006 (antibody, V domains shown)
VH: EVQLVESGGGLVQPGGSLRLSCAASGFTFSKFWMHWVRQAPGKGLVWLSRINTDGTVTTYADSVKGRFTISRDNAKSTLYLQMNSLRVEDTAVYYCAGGGSQVDFWGQGTLVTVSS
VL: PYELTQPPSVSVSPGQTASIACSGDNLGNKYAWWYRQKPGQSPVLVMYKDNKRPSGIPERFSGSNSGNTATLTISGTQAMDEADYYCQTWDSSTVIFGGGTKLTVQ
B8: binds [8].

B9: TTES1012 (antibody, V domains shown)
VH: EVQLVESGGGLVQPGGSLRLSCAASGFTFSSYWMTWVRQAPGKGLEWVANIKQDGSEKYYVDSVKGRFTISRDNSKNSLYLQMNSLRAEDTAVYYCARAGYDLFGWFDPWGQGTLVTVSS
VL: SYELTQPPSVSVSPGQTARITCSGDALPKQYAYWYQQKPGQAPVLVIYKDSERPSGIPERFSGSSSGTTVTLTISGVQAEDEADYYCQSADSSGTYVFGTGTKVTVLG
B9: binds (G antigen 2A).
